US9222947B2, “Anti-sAPPβ antibody” (SHIONOGI & CO., LTD., priority 2012, dated 2015)

Biological target: sAPPβ (Homo sapiens, UniProt P05067)
Test: Binding affinity on GLM chip using ProteOn (SPR)
Conditions: antibody immobilized, sAPPβ as analyte
Description: Binding affinity of the neoepitope antibody, 4G4 was immobilized on a GLM chip (BIO-RAD) and analyzed using a ProteOn (BIO-RAD). 4 different concentrations of sAPPβ (40, 20, 10, 5 nM) were injected as the analytes. […] Binding affinity of the internal antibody, 5H10 was immobilized on a GLM chip (BIO-RAD) and analyzed using a ProteOn (BIO-RAD). […] concentrations of sAPPβ (1000, 250, 62.5, 15.6, 3.91 nM) were injected as the analytes.

Sequence of sAPPβ (P05067 18-671 limits assumed): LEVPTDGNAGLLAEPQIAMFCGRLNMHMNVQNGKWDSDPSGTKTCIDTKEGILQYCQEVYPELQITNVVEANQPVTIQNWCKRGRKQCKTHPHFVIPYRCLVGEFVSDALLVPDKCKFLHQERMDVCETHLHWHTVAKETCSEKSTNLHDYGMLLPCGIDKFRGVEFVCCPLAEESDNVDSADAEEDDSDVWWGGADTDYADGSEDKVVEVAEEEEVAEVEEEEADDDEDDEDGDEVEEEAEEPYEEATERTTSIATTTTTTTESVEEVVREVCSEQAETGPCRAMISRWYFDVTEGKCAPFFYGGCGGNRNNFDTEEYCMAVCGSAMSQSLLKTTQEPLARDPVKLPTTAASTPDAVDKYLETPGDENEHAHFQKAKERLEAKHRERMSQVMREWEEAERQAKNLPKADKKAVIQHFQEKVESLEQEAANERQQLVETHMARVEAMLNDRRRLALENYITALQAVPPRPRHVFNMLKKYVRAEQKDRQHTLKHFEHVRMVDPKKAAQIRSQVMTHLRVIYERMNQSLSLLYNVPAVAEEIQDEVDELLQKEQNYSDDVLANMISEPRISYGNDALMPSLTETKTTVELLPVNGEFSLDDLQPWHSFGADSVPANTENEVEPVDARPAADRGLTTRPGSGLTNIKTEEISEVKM

B1: 5H10: mouse monoclonal antibody recognizing the internal structure/C-terminal fragments of sAPPβ; VH SEQ ID NO: 14, VL SEQ ID NO: 15 (antibody, V domains shown)
VH: QVQLQQSGTELAKPGASVKMSCKASGYTFIDYWMHWIKQSPGQGLEWIGFINPRSGSTTYNQKFRDKATLTVDTSSSTAYMQLTSLTSEDSAVYYCTRPDFDYFDYWGQGTTLTVSS
VL: DVLMTQTPLSLPVSLGDHASISCRSSQSIVQSNGNTYLEWYLQKPGQSPKLLIYKVSNRFSGVPDRFSGSGSGTDFTLKISSVEAEDLGIYYCFQASHVPLTFGAGTKLELKRA
modifications: VH of antibody 5H10; VL of antibody 5H10
**Q.** How did the Kd turn out when B1 was run?
**A.** 0.62 nM
